Laboratory results as given in patent US20210079378A1 (Chugai, published 2021).

T1: recombinant soluble human IL-6 receptor (SR344) (human, UniProt P08887 20-344)
T1 construct: In the membrane-type IL-6 receptor assays the same protein was biotinylated and immobilised on the sensor chip via streptavidin, as stated under assay; also called soluble IL-6 receptor; membrane-type IL-6 receptor (as biotinylated SR344 immobilised on the chip)
T1 sequence (looked up): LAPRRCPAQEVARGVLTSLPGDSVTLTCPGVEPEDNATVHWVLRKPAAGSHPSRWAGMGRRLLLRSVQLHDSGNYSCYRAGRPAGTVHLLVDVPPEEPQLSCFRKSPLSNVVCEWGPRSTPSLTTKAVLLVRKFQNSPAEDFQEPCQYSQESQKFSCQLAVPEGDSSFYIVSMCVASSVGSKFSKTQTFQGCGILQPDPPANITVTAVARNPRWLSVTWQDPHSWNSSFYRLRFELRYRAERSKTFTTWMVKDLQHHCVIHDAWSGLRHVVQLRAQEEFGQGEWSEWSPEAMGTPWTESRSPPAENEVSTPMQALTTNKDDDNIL

T2: soluble mouse IL-31 receptor (mouse, UniProt Q8K5B1 19-499)
T2 construct: Soluble form
T2 sequence (looked up): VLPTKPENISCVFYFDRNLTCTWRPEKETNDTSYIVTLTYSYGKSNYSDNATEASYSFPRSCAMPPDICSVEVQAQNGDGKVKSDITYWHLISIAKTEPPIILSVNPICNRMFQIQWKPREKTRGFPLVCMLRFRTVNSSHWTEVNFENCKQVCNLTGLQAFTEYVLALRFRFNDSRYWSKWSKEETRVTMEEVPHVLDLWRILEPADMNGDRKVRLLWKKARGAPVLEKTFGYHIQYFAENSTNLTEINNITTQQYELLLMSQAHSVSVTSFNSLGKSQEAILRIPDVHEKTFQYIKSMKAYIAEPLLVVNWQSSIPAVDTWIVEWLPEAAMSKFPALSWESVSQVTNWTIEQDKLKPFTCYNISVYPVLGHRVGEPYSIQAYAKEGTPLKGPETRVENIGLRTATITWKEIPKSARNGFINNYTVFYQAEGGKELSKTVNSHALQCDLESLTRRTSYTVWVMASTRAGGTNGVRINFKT


Assays:
[1] = molecular target: T1, recombinant soluble human IL-6 receptor …; assay: SPR Biacore T100, 37C; antibody captured on protein A/G chip, SR344 analyte; pH 5.8 vs pH 7.4
Method: Kinetic analyses of antigen-antibody reactions at pH 5.8 and pH 7.4 were carried out using a Biacore™ T100 surface plasmon resonance system (GE Healthcare) on the four antibodies: humanized PM1 antibody (WT) and H3pI/L73, CLH5/L73, and H170/L82 produced in Examples 2 and 4 (buffer: 10 mM MES (pH 7.4 or pH 5.8), 150 mM NaCl, and 0.05% TWEEN® 20 (polyoxyethelene sorbitan monolaurate)). Various antibodies were bound onto a sensor chip immobilized with recomb-protein A/G (Pierce) by amine coupling. SR344 adjusted to concentrations of 9.8 to 400 nM was injected to the chip as an analyte. […] All the measurements were carried out at 37° C. Association rate constants kₐ (1/Ms) and dissociation rate constants kd (1/s) were calculated using Biacore T100™ Evaluation Software (GE Healthcare), and dissociation constants KD (M) were calculated on the basis of those values (Table 5). Moreover, the ratio of the affinities at pH 5.8 and pH 7.4 were calculated for each clone to evaluate pH-dependent binding. All the measurements were carried out at 37° C.

[2] = molecular target: T2, soluble mouse IL-31 receptor; assay: SPR Biacore T100, 25C, pH 5.5; antibody captured on protein A/G chip, soluble mouse IL-31 receptor analyte; pH 5.5
Method: Kinetic analysis of antigen-antibody reactions at pH 5.5 and pH 7.4 was carried out using a Biacore T100™ surface plasmon resonance system (GE Healthcare) for the two types of antibodies prepared as mentioned above: Anti-IL31R wild type and Anti-IL31R clone 1 (buffer: DPBS(−) (pH 7.4 or pH 5.5), 150 mM NaCl, 0.01% TWEEN® 20 (polyoxyethelene sorbitan monolaurate), 0.02% NaN₃). The antibodies were bound to a sensor chip on which recomb-protein A/G (Pierce) was immobilized by amine coupling, and then the soluble mouse IL-31 receptor (prepared according to the method described in WO 2007/142325) adjusted to an appropriate concentration was injected therein as an analyte. All the measurements were carried out at 25° C. Association rate constants kₐ (1/Ms) and dissociation rate constants kd (1/s) were calculated using Biacore T100™ Evaluation Software (GE Healthcare), and dissociation constants KD (M) were calculated based on those values (Table 16). Furthermore, the ratio of affinity at pH 5.5 and pH 7.4 was calculated for each clone to evaluate the pH-dependent binding.

| Binder | affinity ratio between pH 5.8 and pH 7.4 [1] | kon [2] |
| --- | --- | --- |
| H3pI/L73 (antibody, IgG1, V domains shown, Tested as IgG1; also called H3pI/L73-IgG1; H3pl/L73) VH: QVQLQESGPGLVKPSETLSLTCAVSGHSISHDHAHSWVRQPPGEGLEWIGYISYSGITNYNPSLKGRVTISRDTSKNQFSLKLSSVTAADTAAYYCARSLARTTAMDYWGEGTLVTVSS VL: DIQMTQSPSSLSASVGDSVTITCQASQHISSHLNWYQQKPGKAPELLIYYGSHLHSGVPSRFSGSGSGTDFTFTISSLEAEDAATYYCGQGNRLPYTFGQGTKVEIE | 41 fold | – |
| CLH5/L73 (antibody, IgG1, V domains shown, Expressed and purified as IgG) VH: QVQLQESGPGLVKPSETLSLTCAVSGYSISHDHAWSWVRQPPGEGLEWIGHISYSGITNYNPHLKGRVTISRDTSKNQFSLKLSSVTAADTAAYYCARFLARITAHDHWGEGTLVTVSS VL: DIQMTQSPSSLSASVGDSVTITCQASQHISSHLNWYQQKPGKAPELLIYYGSHLHSGVPSRFSGSGSGTDFTFTISSLEAEDAATYYCGQGNRLPYTFGQGTKVEIE | 66 fold | – |
| H170/L82 (antibody, IgG1, V domains shown, Tested as IgG1; also called H170/L82-IgG1) VH: QVQLQESGPGLVKPSETLSLTCAVSGHSISHHHAHSWVRQPPGEGLEWIGYISYSGITHYNPHLKGRVTISRDTSKNQFSLKLSSVTAADTAAYYCARVLARITAMDHWGEGTLVTVSS VL: DIQMTQSPSSLSASVGDSVTITCQASQDISSHLNWYQQKPGKAPELLIYYGSHLHSGVPSRFSGSGSGTDFTFTISSLEAEDAATYYCGQGNRLPYTFGQGTKVEIE | 394 fold | – |
| Anti-IL31R wild type (antibody, human IgG1, lambda, V domains shown, Antibody described in WO 2007/142325; also called anti-IL-31 receptor antibody H chain (WT)/L chain (WT)) VH: not shown VL: LPVLTQPPSVSVAPGQTARITCGGNNIGSKTVYWYQQEPGQAPVLVVYDDTDRPAGIPERFSGANSGNTATLTISRVEAGDEADYYCQVWDSSTDHGVFGGGTKLTVLG | – | 51000 M⁻¹ s⁻¹ |
